In the supplement of paper PMC10065799, “High-throughput profiling of sequence recognition by tyrosine kinases and SH2 domains using bacterial peptide display” (eLife, 2023):

Tests used:
AncSZ = assay: phosphorylation enrichment, bacterial display (enrichment ratio); higher = better substrate or ligand; peptides without Tyr show the background
EPHB1 = EPHB1 (UniProt P54762); assay: as above
EPHB2 = EPHB2 (UniProt P29323); assay: as above
FGFR1 = FGFR1 (UniProt P11362); assay: as above
FGFR3 = FGFR3 (UniProt P22607); assay: as above
Fer (mouse) = assay: as above
Fes = Fes (UniProt P07332); assay: as above
Sequence of Fes (P07332 whole entry, looked up): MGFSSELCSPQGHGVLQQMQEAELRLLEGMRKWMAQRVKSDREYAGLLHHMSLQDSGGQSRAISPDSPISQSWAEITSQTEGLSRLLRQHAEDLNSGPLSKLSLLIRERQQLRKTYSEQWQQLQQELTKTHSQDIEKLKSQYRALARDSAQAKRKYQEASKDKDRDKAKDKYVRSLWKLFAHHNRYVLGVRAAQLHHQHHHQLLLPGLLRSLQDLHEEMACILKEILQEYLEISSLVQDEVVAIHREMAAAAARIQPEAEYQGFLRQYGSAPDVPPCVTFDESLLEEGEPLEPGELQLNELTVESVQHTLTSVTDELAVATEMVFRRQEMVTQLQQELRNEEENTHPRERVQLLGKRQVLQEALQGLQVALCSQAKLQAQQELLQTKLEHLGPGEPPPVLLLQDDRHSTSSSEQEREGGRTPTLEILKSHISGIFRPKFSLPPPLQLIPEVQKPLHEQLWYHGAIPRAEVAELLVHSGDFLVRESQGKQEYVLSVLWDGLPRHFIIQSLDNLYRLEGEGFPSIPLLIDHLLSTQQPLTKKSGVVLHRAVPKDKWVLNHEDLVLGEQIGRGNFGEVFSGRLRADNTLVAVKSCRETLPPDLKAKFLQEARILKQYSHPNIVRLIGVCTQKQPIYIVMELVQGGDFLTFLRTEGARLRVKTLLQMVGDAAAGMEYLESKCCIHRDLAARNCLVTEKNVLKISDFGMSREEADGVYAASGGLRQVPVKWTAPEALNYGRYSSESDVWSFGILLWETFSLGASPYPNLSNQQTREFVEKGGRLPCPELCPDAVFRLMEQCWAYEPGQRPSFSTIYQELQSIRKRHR

Fyn = Fyn (UniProt P06241); assay: as above
Sequence of Fyn (P06241 whole entry, looked up): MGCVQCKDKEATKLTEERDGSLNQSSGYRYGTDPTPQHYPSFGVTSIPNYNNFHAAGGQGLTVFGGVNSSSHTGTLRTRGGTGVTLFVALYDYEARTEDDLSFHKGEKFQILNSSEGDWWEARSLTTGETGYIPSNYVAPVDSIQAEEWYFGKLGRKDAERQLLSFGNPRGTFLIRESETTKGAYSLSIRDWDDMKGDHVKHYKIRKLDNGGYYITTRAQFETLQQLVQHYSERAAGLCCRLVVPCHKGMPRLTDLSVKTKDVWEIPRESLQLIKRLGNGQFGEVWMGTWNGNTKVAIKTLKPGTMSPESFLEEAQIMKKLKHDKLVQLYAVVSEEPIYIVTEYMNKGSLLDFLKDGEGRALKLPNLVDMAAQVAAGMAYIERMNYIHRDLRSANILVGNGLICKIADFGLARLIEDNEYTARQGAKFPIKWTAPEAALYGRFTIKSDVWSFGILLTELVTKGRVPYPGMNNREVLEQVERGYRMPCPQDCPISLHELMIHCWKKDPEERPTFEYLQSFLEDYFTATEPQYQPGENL

Hck = Hck (UniProt P08631); assay: as above
Sequence of Hck (P08631 whole entry, looked up): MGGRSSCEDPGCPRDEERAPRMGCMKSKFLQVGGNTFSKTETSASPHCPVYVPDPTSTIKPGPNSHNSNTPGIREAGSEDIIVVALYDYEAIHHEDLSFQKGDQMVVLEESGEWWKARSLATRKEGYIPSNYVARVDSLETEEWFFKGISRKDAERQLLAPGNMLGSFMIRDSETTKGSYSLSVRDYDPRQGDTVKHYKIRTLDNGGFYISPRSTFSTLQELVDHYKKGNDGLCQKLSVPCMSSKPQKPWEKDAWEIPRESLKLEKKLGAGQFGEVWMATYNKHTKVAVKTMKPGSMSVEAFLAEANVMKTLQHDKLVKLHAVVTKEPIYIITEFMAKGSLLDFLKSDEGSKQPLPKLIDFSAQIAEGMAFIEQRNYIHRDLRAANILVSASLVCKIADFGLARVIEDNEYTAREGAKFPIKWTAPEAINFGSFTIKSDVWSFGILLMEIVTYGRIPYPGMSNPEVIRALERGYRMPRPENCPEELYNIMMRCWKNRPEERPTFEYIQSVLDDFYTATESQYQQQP

Jak2 = Jak2 (UniProt O60674); assay: as above
MERTK = MERTK (UniProt Q12866); assay: as above
Sequence of MERTK (Q12866 whole entry, looked up): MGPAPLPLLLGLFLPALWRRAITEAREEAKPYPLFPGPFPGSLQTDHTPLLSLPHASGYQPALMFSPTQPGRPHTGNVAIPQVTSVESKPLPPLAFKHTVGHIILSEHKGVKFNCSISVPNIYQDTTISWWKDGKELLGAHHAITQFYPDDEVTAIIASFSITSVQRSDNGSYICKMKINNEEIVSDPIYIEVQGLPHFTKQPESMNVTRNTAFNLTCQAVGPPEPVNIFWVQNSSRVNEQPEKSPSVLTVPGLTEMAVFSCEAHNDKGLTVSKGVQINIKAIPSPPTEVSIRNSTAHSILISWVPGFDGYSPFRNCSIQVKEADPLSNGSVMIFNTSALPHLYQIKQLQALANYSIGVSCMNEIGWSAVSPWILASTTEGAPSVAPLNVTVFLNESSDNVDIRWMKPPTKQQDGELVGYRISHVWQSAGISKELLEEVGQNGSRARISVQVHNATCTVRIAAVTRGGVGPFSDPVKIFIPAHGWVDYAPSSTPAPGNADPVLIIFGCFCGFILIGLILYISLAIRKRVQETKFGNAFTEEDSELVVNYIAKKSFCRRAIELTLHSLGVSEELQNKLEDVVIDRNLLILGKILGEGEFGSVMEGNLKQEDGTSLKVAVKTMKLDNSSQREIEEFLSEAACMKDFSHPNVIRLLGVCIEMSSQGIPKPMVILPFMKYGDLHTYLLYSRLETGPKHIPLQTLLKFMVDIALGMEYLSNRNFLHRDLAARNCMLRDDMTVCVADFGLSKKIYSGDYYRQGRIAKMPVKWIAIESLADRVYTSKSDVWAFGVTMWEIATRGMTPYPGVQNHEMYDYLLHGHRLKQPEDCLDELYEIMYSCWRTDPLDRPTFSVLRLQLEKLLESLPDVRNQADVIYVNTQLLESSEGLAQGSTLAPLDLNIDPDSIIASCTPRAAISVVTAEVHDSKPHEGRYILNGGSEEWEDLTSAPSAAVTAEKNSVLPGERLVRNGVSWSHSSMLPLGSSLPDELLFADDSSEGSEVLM

c-Abl (mouse) = assay: as above
c-Src = assay: as above
Grb2 SH2 = Grb2 SH2 (UniProt P62993); assay: SH2 binding enrichment of the phosphorylated peptide, bacterial display (enrichment ratio); higher = better substrate or ligand; peptides without Tyr show the background
SHP2-C SH2 = assay: as above
c-Src SH2 = assay: as above
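Wherever SH2 binding enrichment of the phosphorylated peptide, bacterial display is given: peptide library displayed on the E. coli surface as eCPX fusions, selected cells deep-sequenced, score is each peptide's frequency after selection divided by its frequency in the input.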
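Wherever phosphorylation enrichment, bacterial display is given: 11-residue human phosphosite peptides and single-mutation variants displayed on the E. coli surface, counted by deep sequencing, each peptide's frequency after selection divided by its frequency in the unselected input library; frequency after pTyr selection over input frequency; kinase dosed for 20-30% of maximal phosphorylation in three min.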

Sequence of EPHB1 (P54762 whole entry, looked up): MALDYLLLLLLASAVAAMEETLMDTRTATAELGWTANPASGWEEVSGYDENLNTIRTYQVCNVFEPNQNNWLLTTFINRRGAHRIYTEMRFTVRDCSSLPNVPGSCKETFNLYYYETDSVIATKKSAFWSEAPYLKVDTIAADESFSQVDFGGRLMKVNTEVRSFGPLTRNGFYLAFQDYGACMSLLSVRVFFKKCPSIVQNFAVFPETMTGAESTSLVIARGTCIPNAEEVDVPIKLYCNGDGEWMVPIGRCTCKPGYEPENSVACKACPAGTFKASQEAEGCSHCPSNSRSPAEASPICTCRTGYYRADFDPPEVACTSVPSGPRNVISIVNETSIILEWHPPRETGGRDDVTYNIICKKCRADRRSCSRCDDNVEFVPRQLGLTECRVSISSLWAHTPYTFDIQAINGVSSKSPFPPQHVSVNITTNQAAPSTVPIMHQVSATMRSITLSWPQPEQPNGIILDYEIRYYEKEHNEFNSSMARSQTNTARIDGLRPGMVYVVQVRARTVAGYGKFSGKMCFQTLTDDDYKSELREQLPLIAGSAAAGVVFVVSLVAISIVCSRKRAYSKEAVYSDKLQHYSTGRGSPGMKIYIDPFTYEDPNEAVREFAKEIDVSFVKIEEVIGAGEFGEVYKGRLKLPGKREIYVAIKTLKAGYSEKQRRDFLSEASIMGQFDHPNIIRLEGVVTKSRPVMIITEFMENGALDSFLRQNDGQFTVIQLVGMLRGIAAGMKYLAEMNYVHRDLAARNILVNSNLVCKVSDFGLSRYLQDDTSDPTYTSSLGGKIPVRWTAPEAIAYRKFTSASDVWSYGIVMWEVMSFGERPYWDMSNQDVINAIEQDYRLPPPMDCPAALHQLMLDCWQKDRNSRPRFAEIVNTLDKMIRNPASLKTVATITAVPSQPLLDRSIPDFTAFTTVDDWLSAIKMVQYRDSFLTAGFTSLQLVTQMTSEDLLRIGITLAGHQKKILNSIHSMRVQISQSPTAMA
Sequence of FGFR1 (P11362 whole entry, looked up): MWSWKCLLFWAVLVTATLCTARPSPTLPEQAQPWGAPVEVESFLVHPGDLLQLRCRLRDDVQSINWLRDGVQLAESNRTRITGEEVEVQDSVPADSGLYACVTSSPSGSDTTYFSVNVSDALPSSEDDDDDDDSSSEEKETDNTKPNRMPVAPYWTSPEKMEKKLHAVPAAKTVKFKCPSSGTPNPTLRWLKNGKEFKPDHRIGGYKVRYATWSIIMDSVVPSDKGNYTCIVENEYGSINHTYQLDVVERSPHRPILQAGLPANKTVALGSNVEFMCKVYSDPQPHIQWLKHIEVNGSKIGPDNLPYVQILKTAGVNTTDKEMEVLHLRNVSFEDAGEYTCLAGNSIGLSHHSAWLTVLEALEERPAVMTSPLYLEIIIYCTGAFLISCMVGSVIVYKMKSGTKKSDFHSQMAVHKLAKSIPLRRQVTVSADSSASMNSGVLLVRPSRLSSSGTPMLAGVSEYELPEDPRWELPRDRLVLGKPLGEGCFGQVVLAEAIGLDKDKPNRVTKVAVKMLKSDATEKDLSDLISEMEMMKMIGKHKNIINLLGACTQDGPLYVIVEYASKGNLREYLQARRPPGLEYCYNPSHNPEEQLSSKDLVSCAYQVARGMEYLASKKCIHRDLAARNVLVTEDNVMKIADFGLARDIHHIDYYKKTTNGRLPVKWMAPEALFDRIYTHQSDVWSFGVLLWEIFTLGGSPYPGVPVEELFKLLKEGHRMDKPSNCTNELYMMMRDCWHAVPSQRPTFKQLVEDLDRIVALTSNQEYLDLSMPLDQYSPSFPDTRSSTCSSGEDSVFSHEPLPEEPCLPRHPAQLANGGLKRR

| SH2 binding enrichment (Grb2 SH2) | SH2 binding enrichment (SHP2-C SH2) | SH2 binding enrichment (c-Src SH2) | Sequence | phosphorylation enrichment (AncSZ) | phosphorylation enrichment (EPHB1) | phosphorylation enrichment (EPHB2) | phosphorylation enrichment (FGFR1) | phosphorylation enrichment (FGFR3) | phosphorylation enrichment (Fer (mouse)) | phosphorylation enrichment (Fes) | phosphorylation enrichment (Fyn) | phosphorylation enrichment (Hck) | phosphorylation enrichment (Jak2) | phosphorylation enrichment (MERTK) | phosphorylation enrichment (c-Abl (mouse)) | phosphorylation enrichment (c-Src) |
| --- | --- | --- | --- | --- | --- | --- | --- | --- | --- | --- | --- | --- | --- | --- | --- | --- |
| 1.11 | 0.777 | 0.429 | FKDVTYLTEEK [UBE3A_Y127] | 1.15 | 0.618 | 0.691 | 0.524 | 0.683 | 0.423 | 1.09 | 0.747 | 0.53 | 0.959 | 0.51 | 0.726 | 0.511 |
| 0.809 | 0.825 | 0.535 | FKGIVYAVSSD [DCX_Y70] | 0.86 | 0.416 | 0.49 | 0.424 | 0.505 | 0.428 | 0.916 | 0.484 | 0.391 | 0.802 | 0.371 | 0.629 | 0.49 |
| 1.01 | 0.641 | 0.759 | FLAAIYPTVGQ [NF1_Y2508_T2507I_YF] | 0.724 | 0.58 | 0.358 | 0.473 | 0.583 | 0.382 | 0.943 | 0.39 | 0.477 | 0.798 | 0.406 | 0.389 | 0.442 |
| 1.11 | 1.22 | 0.781 | FLEKFYKFGCR [NNMT_Y25_S29C_YF] | 0.934 | 0.522 | 0.506 | 0.631 | 0.696 | 0.546 | 1.12 | 0.512 | 0.443 | 0.961 | 0.432 | 0.884 | 0.446 |
| 0.856 | 0.773 | 0.585 | FLELNYKEDEF [MME_Y502_YF] | 1.34 | 0.612 | 0.569 | 0.565 | 0.633 | 0.524 | 1.05 | 0.461 | 0.552 | 0.848 | 0.344 | 0.589 | 0.349 |
| 0.71 | 0.867 | 0.416 | FLQEIHNSNNQ [FGG_Y140_Y140H_YF] | 0.823 | 0.561 | 0.436 | 0.606 | 0.716 | 0.607 | 1.01 | 0.511 | 0.538 | 0.63 | 0.443 | 0.808 | 0.391 |
| 2.38 | 1.52 | 1.38 | FMIISYVLIIR [OR1D2_Y218_V214M] | 0.936 | 0.225 | 0.483 | 0.651 | 0.559 | 0.491 | 0.631 | 0.426 | 0.553 | 0.383 | 0.446 | 0.625 | 0.437 |
| 1.52 | 1.43 | 1.03 | FMMMRYSQNVR [SDAD1_Y656] | 1.11 | 0.614 | 0.626 | 0.432 | 0.782 | 0.58 | 1.04 | 0.424 | 0.475 | 0.939 | 0.493 | 0.701 | 0.365 |
| 0.852 | 0.498 | 0.437 | FNDSTYNQQLI [ZPLD1_Y198_YF] | 0.883 | 0.474 | 0.483 | 0.651 | 0.555 | 0.463 | 0.878 | 0.429 | 0.482 | 0.863 | 0.431 | 0.694 | 0.617 |
| 0.936 | 0.704 | 0.554 | FNNFGYGNDGF [HNRNPH3_Y161_YF] | 0.828 | 0.403 | 0.518 | 0.546 | 0.557 | 0.499 | 0.939 | 0.505 | 0.447 | 0.937 | 0.491 | 0.606 | 0.507 |
| 0.823 | 0.685 | 0.386 | FNNFGYGSDGF [HNRNPH3_Y161_N163S_YF] | 0.856 | 0.527 | 0.592 | 0.499 | 0.593 | 0.455 | 0.962 | 0.442 | 0.57 | 0.829 | 0.455 | 0.727 | 0.453 |
| 0.835 | 0.963 | 0.599 | FNVLQYVVPEV [EIF3A_Y382] | 1.88 | 0.933 | 1.02 | 2.06 | 1.85 | 0.701 | 1.32 | 0.629 | 0.635 | 1.55 | 1.99 | 5.16 | 0.58 |
| 0.862 | 0.657 | 0.657 | FPPISYLHAIS [MVD_Y276_N278H] | 0.984 | 0.434 | 0.579 | 0.602 | 0.612 | 0.545 | 1 | 0.602 | 0.565 | 0.793 | 0.544 | 0.829 | 0.608 |
| 0.987 | 1.4 | 3.87 | FPRTGYSVPFG [TGM1_Y370_L366P_YF] | 0.686 | 0.493 | 0.504 | 0.379 | 0.513 | 0.421 | 0.709 | 0.475 | 0.419 | 0.688 | 0.485 | 1.11 | 0.511 |
| 0.787 | 1.14 | 0.657 | FQGGTYSKAST [FGG_Y380_YF] | 0.448 | 0.377 | 0.452 | 0.495 | 0.413 | 0.325 | 0.544 | 0.372 | 0.308 | 0.478 | 0.46 | 0.446 | 0.41 |

| Sequence | SH2 binding enrichment (Grb2 SH2) | SH2 binding enrichment (SHP2-C SH2) | SH2 binding enrichment (c-Src SH2) | phosphorylation enrichment (AncSZ) | phosphorylation enrichment (EPHB1) | phosphorylation enrichment (EPHB2) | phosphorylation enrichment (FGFR1) | phosphorylation enrichment (FGFR3) | phosphorylation enrichment (Fer (mouse)) | phosphorylation enrichment (Fes) | phosphorylation enrichment (Fyn) | phosphorylation enrichment (Hck) | phosphorylation enrichment (Jak2) | phosphorylation enrichment (MERTK) | phosphorylation enrichment (c-Abl (mouse)) | phosphorylation enrichment (c-Src) |
| --- | --- | --- | --- | --- | --- | --- | --- | --- | --- | --- | --- | --- | --- | --- | --- | --- |
| FKTPIYPFLLP [PLD2_Y578_T577I_YF] | 1.14 | 0.892 | 0.825 | 1.11 | 0.564 | 0.563 | 1.06 | 0.782 | 0.497 | 0.883 | 0.456 | 0.523 | 0.91 | 1.57 | 0.747 | 0.559 |
